US20240255509A1, “COMPOSITIONS AND METHODS RELATED TO K180 DIMETHYLATED H1.0 PROTEIN” (Aelan Cell Technologies, Inc., priority 2016, published 2024)

How the values were obtained:
Test in all cases: In vitro methylation with GLP, products identified by LC-MS
Format in all cases: biochemical
[1] = biological target: T1, unmodified H1.0 peptide ([…] (SEQ ID NO:42)) (Homo sapiens, UniProt P07305); conditions: 10 U enzyme, 3.2 mM S-Adenosyl-L-Methionine, 37° C. 1 hour, spectral counts
T1 construct: purchased ThermoFisher Scientific (peptide); NEB (G9A) M0235S (G9A)
Description: (§1) In order to identify the precise sites of methylation by G9A and GLP methyltransferases on histone H1.0, in vitro methylation assays were performed and subsequently analyzed by Liquid Chromatography and High-resolution Mass Spectrometry (LC-MS) analysis. Methylation reactions were set up using either G9A methyltransferase (NEB, M0235S, Lot #0031201) or GLP methyltransferase (Cayman Chemical, 10755). The methyl donor in each reaction was unlabeled S-Adenosyl-L-Methionine (NEB, B9003S). […]
(§2) For the Liquid Chromatography and High-resolution Mass Spectrometry (LC-MS) analysis, samples were prepared as described above and about 1 μg o the product was injected onto a Thermo Scientific Easy nLC system configured with a 10 cm×100 um trap column and a 25 cm×100 um ID resolving column. […] This ensured optimal full-scan data for quantification. […]
(§3) Protein identification was performed using Thermo Scientific Proteome Discoverer version 1.4 (including Sequest and Percolator algorithms) using RefSeqHuman sequence database. […] Protein quantification was performed using Pinpoint version 1.4 software. The Pinpoint quantification workflow included importing the Proteome Discoverer .msf files as spectral libraries. Identified peptides were subsequently quantified in MS .raw files using the Pinpoint peak finding, chromatographic alignment and area calculation algorithms. […]

[2] = biological target: T2, K180 dimethylated H1.0 peptide (SEQ ID NO:3) (Homo sapiens, UniProt P07305); conditions: K180 dimethylated peptide as substrate
T2 construct: purchased ThermoFisher Scientific (peptide); Cayman Chemical (GLP) 10755 (GLP)
Description: as §1, §2, §3

[3] = biological target: T3, recombinant human H1.0 protein (Homo sapiens, UniProt P07305); conditions: 1 μg full-length protein
T3 construct: full-length recombinant human H1.0 (NEB, M2501S); purchased NEB M2501S (H1.0); M0235S (G9A)
Description: as §1, §2, §3

B1: GLP: recombinant G9A-like protein (GLP) methyltransferase (Cayman Chemical, 10755) (protein, UniProt Q9H9B1 2-1298, looked up)
Histone-lysine …: AAADAEAVPARGEPQQDCCVKTELLGEETPMAADEGSAEKQAGEAHMAADGETNGSCENSDASSHANAAKHTQDSARVNPQDGTNTLTRIAENGVSERDSEAAKQNHVTADDFVQTSVIGSNGYILNKPALQAQPLRTTSTLASSLPGHAAKTLPGGAGKGRTPSAFPQTPAAPPATLGEGSADTEDRKLPAPGADVKVHRARKTMPKSVVGLHAASKDPREVREARDHKEPKEEINKNISDFGRQQLLPPFPSLHQSLPQNQCYMATTKSQTACLPFVLAAAVSRKKKRRMGTYSLVPKKKTKVLKQRTVIEMFKSITHSTVGSKGEKDLGASSLHVNGESLEMDSDEDDSEELEEDDGHGAEQAAAFPTEDSRTSKESMSEADRAQKMDGESEEEQESVDTGEEEEGGDESDLSSESSIKKKFLKRKGKTDSPWIKPARKRRRRSRKKPSGALGSESYKSSAGSAEQTAPGDSTGYMEVSLDSLDLRVKGILSSQAEGLANGPDVLETDGLQEVPLCSCRMETPKSREITTLANNQCMATESVDHELGRCTNSVVKYELMRPSNKAPLLVLCEDHRGRMVKHQCCPGCGYFCTAGNFMECQPESSISHRFHKDCASRVNNASYCPHCGEESSKAKEVTIAKADTTSTVTPVPGQEKGSALEGRADTTTGSAAGPPLSEDDKLQGAASHVPEGFDPTGPAGLGRPTPGLSQGPGKETLESALIALDSEKPKKLRFHPKQLYFSARQGELQKVLLMLVDGIDPNFKMEHQNKRSPLHAAAEAGHVDICHMLVQAGANIDTCSEDQRTPLMEAAENNHLEAVKYLIKAGALVDPKDAEGSTCLHLAAKKGHYEVVQYLLSNGQMDVNCQDDGGWTPMIWATEYKHVDLVKLLLSKGSDINIRDNEENICLHWAAFSGCVDIAEILLAAKCDLHAVNIHGDSPLHIAARENRYDCVVLFLSRDSDVTLKNKEGETPLQCASLNSQVWSALQMSKALQDSAPDRPSPVERIVSRDIARGYERIPIPCVNAVDSEPCPSNYKYVSQNCVTSPMNIDRNITHLQYCVCIDDCSSSNCMCGQLSMRCWYDKDGRLLPEFNMAEPPLIFECNHACSCWRNCRNRVVQNGLRARLQLYRTRDMGWGVRSLQDIPPGTFVCEYVGELISDSEADVREEDSYLFDLDNKDGEVYCIDARFYGNVSRFINHHCEPNLVPVRVFMAHQDLRFPRIAFFSTRLIEAGEQLGFDYGERFWDIKGKLFSCRCGSPKCRHSSAALAQRQASAAQEAQEDGLPDTSSAAAADPL
With B1 the “peptides dimethylated at H1.0K180, % of all peptides” value [1] was 96.6%, the “peptides further methylated (H1.0K180 and H1.0K174), % of peptides” value [2] was 1.02% and the “sites of methylation on full-length H1.0” value [3] was “methylates a large number of lysine residues on the C-terminal tail of H1.0, lacking the specificity of G9A”.
